Experiments:
[1] = target: chimeric secretory component (CSC) of the polymeric immunoglobulin receptor (rabbit (domain 1) and human (domains 2 to 5))
[2] = target: receptor binding domain (RBD) of the SARS COV-2 spike protein (amino acids 332-532) (SARS-COV-2) (UniProt P0DTC2)

Sequence of chimeric secretory component (CSC) of the polymeric immunoglobulin receptor (rabbit (domain 1) and human (domains 2 to 5)) (P01833 other isoform, or with tags, fused parts or gaps mutant): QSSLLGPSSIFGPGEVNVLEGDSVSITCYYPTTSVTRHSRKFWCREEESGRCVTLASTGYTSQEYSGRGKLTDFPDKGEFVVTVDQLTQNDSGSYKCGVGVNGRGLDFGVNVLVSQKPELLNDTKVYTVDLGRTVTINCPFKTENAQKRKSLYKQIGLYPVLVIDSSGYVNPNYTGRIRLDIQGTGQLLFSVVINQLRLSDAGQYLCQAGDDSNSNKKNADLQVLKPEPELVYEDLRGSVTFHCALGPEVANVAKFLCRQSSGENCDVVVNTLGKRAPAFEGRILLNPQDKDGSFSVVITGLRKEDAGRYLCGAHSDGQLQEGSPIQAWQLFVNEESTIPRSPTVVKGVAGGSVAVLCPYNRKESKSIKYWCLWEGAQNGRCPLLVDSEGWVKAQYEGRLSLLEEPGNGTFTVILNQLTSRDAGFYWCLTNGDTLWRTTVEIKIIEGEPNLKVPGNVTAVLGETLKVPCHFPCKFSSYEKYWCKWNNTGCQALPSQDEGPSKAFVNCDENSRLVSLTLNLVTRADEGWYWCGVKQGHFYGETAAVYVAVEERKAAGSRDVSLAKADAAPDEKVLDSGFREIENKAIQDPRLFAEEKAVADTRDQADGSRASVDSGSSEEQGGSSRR

CB6-IgG (SARS-COV-2 specific monoclonal antibody CB6, IgG form)
limit of detection [1]: > 100 µg/mL
limit of detection [2]: 5 µg/mL
